In patent US20240287208A1 (CONCEPT TO MEDICINE BIOTECH, published 2024):

Assays:
[1] = biological target: T1, human CD40 on the cell surface (human, UniProt P25942 21-277); experiment: FACS, human dendritic cells, MFI
T1 construct: whole, on cells; also called cell surface CD40; Jurkat-CD40

[2] = biological target: T1, human CD40 on the cell surface; experiment: FACS, Jurkat cells overexpressing human CD40, PE anti-human IgG, MFI
Description: To evaluate the binding affinity of 5T4-CD40 bispecific antibodies to cell surface CD40, bispecific antibodies with formats of b 1 (42p155z2), b12 (42p155z2), b13 (42p155z2), b16 (42p155z2), b17 (42p155z2) and b18 (2p1130) were tested in Jurkat cell lines that overexpressed CD40 by FACS. A total number of 1×10⁵ Jurkat-CD40 cells in each well were incubated with 5-fold serially diluted antibodies starting from 100 nM for 30 minutes at 4° C. in FACS buffer. After wash by FACS buffer, PE conjugated-anti-human IgG antibody was added to each well and incubated at 4° C. for 30 minutes. After wash, MFI of PE was evaluated by MACSQuant Analyzer 16.

T1 sequence (P25942 21-277): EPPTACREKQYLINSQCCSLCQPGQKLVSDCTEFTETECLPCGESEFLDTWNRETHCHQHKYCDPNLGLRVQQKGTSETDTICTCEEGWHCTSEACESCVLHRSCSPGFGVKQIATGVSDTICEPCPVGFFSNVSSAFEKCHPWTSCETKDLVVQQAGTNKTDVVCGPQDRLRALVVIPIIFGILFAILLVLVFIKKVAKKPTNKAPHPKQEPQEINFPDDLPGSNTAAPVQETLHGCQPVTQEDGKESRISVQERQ

B1: b16 (42p155z2) anti-5T4/CD40 bispecific antibody (bispecific antibody, human IgG1, kappa, N297A)
heavy 1: EVQLQQSGPELVKPGASVKISCKASGYAFSSSWMNWVKQRPGKGLEWIGRIYREDGHTNYNGKFKGKATLTADKSSTTAYMQLTSLTSEDSAVYFCANGGAMDYWGQGTSVTVSSASTKGPSVFPLAPSSKSTSGGTAALGCLVKDYFPEPVTVSWNSGALTSGVHTFPAVLQSSGLYSLSSVVTVPSSSLGTQTYICNVNHKPSNTKVDKKVEPKSCDKTHTCPPCPAPELLGGPSVFLFPPKPKDTLMISRTPEVTCVVVDVSHEDPEVKFNWYVDGVEVHNAKTKPREEQYASTYRVVSVLTVLHQDWLNGKEYKCKVSNKALPAPIEKTISKAKGQPREPQVCTLPPSREEMTKNQVSLSCAVKGFYPSDIAVEWESNGQPENNYKTTPPVLDSDGSFFLVSKLTVDKSRWQQGNVFSCSVMHEALHNHYTQKSLSLSPGK
light: DIQMTQSTSSLSASLGDRVTISCRASQDISNYLNWYQQKPDGTVKLLIYYTSRLHSGVPSRFSGSGSGTDYSLTISNLEQEDIATYFCQQDNTLPWTFGGGTKLEIKRTVAAPSVFIFPPSDEQLKSGTASVVCLLNNFYPREAKVQWKVDNALQSGNSQESVTEQDSKDSTYSLSSTLTLSKADYEKHKVYACEVTHQGLSSPVTKSFNRGEC
heavy 2: not shown
notes: also called 1+2 b16 format; chimeric antibody b16 (42p155z2)
EC50 (read off the curve) [1]: ~0.7 nM
EC50 (read off the curve) [2]: ~0.5 nM
